Measured values: the supplement of paper PMC7125110
± gives the standard error. For some assays here: Fewer inactive variants are shown than the library holds.

B1: glmS ribozyme (parent)
chain: AUAAAAGCGCCAGAACUACAGAAAUGUAGUUGACGAGGAGGAGGUUUAUCGAAUUUUCGGCGGAUGCCUCCAAA

What was measured:
Conditions in all cases: with glucosamine-6-phosphate
glucosamine-6-phosphate [1] = variants of: B1; assay: kcat; higher = faster cleavage; RNA array
Method in brief: (§1)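 Barcoded ribozyme variants on sequenced MiSeq chips were transcribed in situ by E. coli RNA polymerase and followed at 37 °C through a hybridised Cy3 probe. Glucosamine-6-phosphate at 40 μM to 10 mM in HEPES/KCl/Mg(OAc)2 buffer was flowed in, and tiles were imaged over ~14 h. Signals were normalised to baseline and to non-cleaving reference variants, and per-tile medians were fit to one- or two-exponential decays to give kobs. Weighted Michaelis–Menten fits across concentrations gave kcat and KM.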

glucosamine-6-phosphate [2] = variants of: B1; assay: KM; higher = weaker cofactor use; RNA array
Method in brief: as §1

glucosamine-6-phosphate [3] = variants of: B1; assay: self-cleavage kobs at 40 uM GlcN6P; higher = faster cleavage; RNA array
Method in brief: as §1

glucosamine-6-phosphate [4] = variants of: B1; assay: self-cleavage kobs at 640 uM GlcN6P; higher = faster cleavage; RNA array
Method in brief: as §1

glucosamine-6-phosphate [5] = variants of: B1; assay: self-cleavage kobs at 2500 uM GlcN6P; higher = faster cleavage; RNA array
Method in brief: as §1

glucosamine-6-phosphate [6] = variants of: B1; assay: self-cleavage kobs at 10000 uM GlcN6P; higher = faster cleavage; RNA array
Method in brief: as §1

glucosamine-6-phosphate [7] = variants of: B1; assay: self-cleavage kobs at 160 uM GlcN6P; higher = faster cleavage; RNA array
Method in brief: as §1

Variant	kcat (glucosamine-6-phosphate [1]) [s⁻¹]	KM (glucosamine-6-phosphate [2]) [µM]	self-cleavage kobs at 40 uM GlcN6P (glucosamine-6-phosphate [3]) [s⁻¹]	self-cleavage kobs at 640 uM GlcN6P (glucosamine-6-phosphate [4]) [s⁻¹]	self-cleavage kobs at 2500 uM GlcN6P (glucosamine-6-phosphate [5]) [s⁻¹]	self-cleavage kobs at 10000 uM GlcN6P (glucosamine-6-phosphate [6]) [s⁻¹]	self-cleavage kobs at 160 uM GlcN6P (glucosamine-6-phosphate [7]) [s⁻¹]
A14G G66C	0.00168 ± 6.5e-05	1410 ± 110	4.79e-05 ± 9.1e-06	0.000484 ± 0.00012	0.00114 ± 0.00025	0.00147 ± 0.00015	–
A15C A53G	0.0101 ± 0.0037	3060 ± 1500	0.000195 ± 2e-05	0.00139 ± 0.00015	0.00454 ± 0.00066	0.00839 ± 0.00094	0.000515 ± 8.7e-05
A14G U55C	0.0632 ± 0.029	–	0.00179 ± 0.00021	0.0382 ± 0.012	–	0.0522 ± 0.015	0.00449 ± 0.00098
A14G G32C A53U	0.000218 ± 7.2e-05	–	–	4.08e-05 ± 2e-05	6.01e-05 ± 1.8e-05	0.000144 ± 2.8e-05	–
A14G U31A C67G	0.00052 ± 0.00021	–	–	0.000237 ± 6e-05	0.000368 ± 0.00011	0.000966 ± 0.0003	0.000163 ± 3.6e-05
A15C C67U	0.00143 ± 0.00033	881 ± 330	7.54e-05 ± 8.7e-06	0.00045 ± 6.9e-05	0.00177 ± 0.00038	0.00139 ± 0.00015	0.000198 ± 6.2e-05
A14G A52C	4.48e-05 ± 2.1e-06	3920 ± 400	–	–	1.73e-05 ± 7.9e-06	3.23e-05 ± 1.3e-05	–
A15C A39U	0.00476 ± 0.00092	2170 ± 610	0.000106 ± 1.2e-05	0.000744 ± 0.00036	0.00216 ± 0.00041	0.00417 ± 0.00045	0.000264 ± 5e-05
A14U G29C	1.25e-05 ± 3.3e-06	–	–	–	–	–	–
A14G G44A	0.00146 ± 0.00055	–	2.21e-05 ± 9.5e-06	0.000664 ± 0.00018	0.00104 ± 0.00021	0.00102 ± 0.00013	4.23e-05 ± 1.4e-05
A14G U31A U57A C71G	2.93e-05 ± 8.2e-06	–	–	–	–	–	–
A14U C68U	0.00143 ± 0.00047	–	2.73e-05 ± 7.7e-06	0.000297 ± 3.8e-05	0.000422 ± 6.8e-05	0.00123 ± 0.00011	6.57e-05 ± 1.2e-05
A14U A64U	1.88e-05 ± 5.9e-07	8870 ± 560	–	–	–	–	–
A14G U49A	3.99e-05 ± 1e-06	773 ± 130	–	–	–	3.67e-05 ± 1.2e-05	–
A15C U45C	0.000613 ± 8.6e-05	5480 ± 1200	–	6.81e-05 ± 1.6e-05	0.000176 ± 3.7e-05	0.000409 ± 7.5e-05	–
A14G C70U	0.0485 ± 0.02	1020 ± 470	0.00188 ± 0.00021	0.0183 ± 0.0066	–	–	0.00502 ± 0.002
